Consider one molecule from publication PMC8484898 (Bioactive Materials, 2021).

This assay concerns the target T1, human receptor activator of nuclear factor-κB (RANK) (human, UniProt Q9Y6Q6 30-212).
T1 sequence (looked up): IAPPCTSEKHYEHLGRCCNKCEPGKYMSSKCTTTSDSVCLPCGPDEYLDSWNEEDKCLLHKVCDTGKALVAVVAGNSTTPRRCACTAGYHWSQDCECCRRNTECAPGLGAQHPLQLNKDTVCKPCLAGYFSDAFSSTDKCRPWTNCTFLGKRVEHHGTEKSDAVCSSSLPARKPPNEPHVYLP
Put plainly: SPR.

B1: human receptor activator of nuclear factor-κB ligand (RANKL) (ligand, UniProt O14788 140-317, looked up)
chain: IRAEKAMVDGSWLDLAKRSKLEAQPFAHLTINATDIPSGSHKVSLSSWYHDRGWAKISNMTFSNGKLIVNQDGFYYLYANICFRHHETSGDLATEYLQLMVYVTKTSIKIPSSHTLMKGGSTKYWSGNSEFHFYSINVGGFFKLRSGEEISIEVSNPSLLDPDQDATYFGAFKVRDID
Consider B1, for which the binding result is recorded as “binds”.
